Patent publication US20230235004A1 (published 2023)
Numbering of substitutions follows the chain as printed.

T1: human MAdCAM expressed on cells (human, UniProt Q13477 19-382)
T1 construct: whole, on cells
T1 sequence (looked up): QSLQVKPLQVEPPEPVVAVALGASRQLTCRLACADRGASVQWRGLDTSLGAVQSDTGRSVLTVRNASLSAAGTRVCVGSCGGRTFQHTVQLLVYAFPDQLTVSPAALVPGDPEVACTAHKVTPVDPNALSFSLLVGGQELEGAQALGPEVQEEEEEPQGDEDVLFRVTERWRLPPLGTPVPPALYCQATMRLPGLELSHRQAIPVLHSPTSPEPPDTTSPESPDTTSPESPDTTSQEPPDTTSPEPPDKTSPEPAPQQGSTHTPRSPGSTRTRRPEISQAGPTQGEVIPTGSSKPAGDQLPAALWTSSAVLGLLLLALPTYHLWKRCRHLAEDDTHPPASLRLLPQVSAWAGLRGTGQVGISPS

T2: mouse MAdCAM expressed on cells (mouse, UniProt Q61826 22-405)
T2 construct: whole, on cells
T2 sequence (looked up): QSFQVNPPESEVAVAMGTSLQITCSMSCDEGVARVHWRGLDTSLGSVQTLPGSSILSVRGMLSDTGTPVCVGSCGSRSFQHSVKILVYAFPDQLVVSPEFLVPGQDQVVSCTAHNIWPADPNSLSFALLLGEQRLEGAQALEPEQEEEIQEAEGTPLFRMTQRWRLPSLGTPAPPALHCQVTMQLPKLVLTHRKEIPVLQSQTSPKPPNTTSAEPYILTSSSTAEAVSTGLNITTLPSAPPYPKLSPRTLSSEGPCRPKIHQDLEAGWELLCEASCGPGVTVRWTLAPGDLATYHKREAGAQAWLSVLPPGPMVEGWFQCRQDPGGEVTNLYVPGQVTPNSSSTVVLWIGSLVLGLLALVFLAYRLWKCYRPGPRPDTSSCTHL

B1: MAdCAM Antibody Table 2 clone 1 (antibody, V domains shown)
VH: EVQLLESGGGLVQPGGSLRLSCAASGFTFSSYGMHWVRQAPGKGLEWVAVISDDGSDKYYADSVKGRFTISRDNSKNTLYLQMNSLRAEDTAVYYCTTSKYYYYYGMDVWGQGTTVTVSS
VL: DIQMTQSPSSLSASVGDRVTITCQASQDISKSLNWYQQKPGKAPKLLIYAASSLQSGVPSRFSGSGSGTDFTLTISSLQPEDFATYYCQQGYSTPLTFGGGTKVEIK
notes: IgG format
B2: MAdCAM Antibody Table 2 clone 10 (antibody, V domains shown)
VH: EVQLLESGGGLVQPGGSLRLSCAASGFMFGDYAMHWVRQAPGKGLEWVSAISGSGGSTYYADSVKGRFTISRDNSKNTLYLQMNSLRAEDTAVYYCAKDLVVAGIWYFDLWGRGTLVTVSS
VL: DIQMTQSPSSLSASVGDRVTITCRASQGISNNLNWYQQKPGKAPKLLIYDASSLESGVPSRFSGSGSGTDFTLTISSLQPEDFATYYCQQTHSFPSTFGQGTKLEIK
notes: IgG format
B3: MAdCAM Antibody Table 2 clone 12 (antibody, V domains shown)
VH: QVQLVQSGAEVKKPGASVKVSCKASGYTLTTWYMYWVRQAPGQGLEWMGWINPNRGATNYAQKFQGRVTMTRDTSTSTVYMELSSLRSEDTAVYYCAKGDLWGAMDVWGQGTLVTVSS
VL: B1 VL with Q24R, Q27D, D28N, S30G, K31S, S32W, N34A, L96P, G100Q
notes: IgG format
B4: MAdCAM Antibody Table 2 clone 13 (antibody, V domains shown)
VH: QVQLVQSGAEVKKPGASVKVSCKASGYTFTTYYMHWVRQAPGQGLEWMGGFDPEDGETIYAQKFQGRVTMTRDTSTSTVYMELSSLRSEDTAVYYCARHAVAGAVGAGYYYYGMDVWGQGTMVTVSS
VL: DIQMTQSPSSLSASVGDRVTITCRASESISNWLAWYQQKPGKAPKLLIYAASTLQSGVPSRFSGSGSGTDFTLTISSLQPEDFATYYCQQSYSVPFTFGPGTKVDIK
notes: IgG format
B5: MAdCAM Antibody Table 2 clone 15 (antibody, V domains shown)
VH: QVQLVQSGAEVKKPGASVKVSCKASGYTFTGYYMHWVRQAPGQGLEWMGWIGPNSGDTNYAQKFQGRVTMTRDTSTSTVYMELSSLRSEDTAVYYCARDLDHNWYFDLWGRGTLVTVSS
VL: DIVMTQSPLSLPVTPGEPASISCRSSQSLLHSNGYNYLDWYLQKPGQSPQLLIYSSSNRAPGVPDRFSGSGSGTDFTLKISRVEAEDVGVYYCMQALHIPLTFGGGTKVEIK
notes: IgG format
B6: MAdCAM Antibody Table 2 clone 16 (antibody, V domains shown)
VH: EVQLLESGGGLVQPGGSLRLSCAASGFTFDDYAMHWVRQAPGKGLEWVSYIDASGTTIYYADSVKGRFTISRDNSKNTLYLQMNSLRAEDTAVYYCAKDQAAAGYWYFDLWGRGTLVTVSS
VL: B1 VL with K31N, S32Y, A50K, S53T, Q55E, G91S, L96I, G100Q, K103R, V104L
notes: IgG format
B7: MAdCAM Antibody Table 2 clone 18 (antibody, V domains shown)
VH: QVQLVQSGAEVKKPGSSVKVSCKASGYTFTNYYMHWVRQAPGQGLEWMGGIIPIVDRVKYAQKFQGRVTITADESTSTAYMELSSLRSEDTAVYYCAKGRYTVNYYYGMDVWGQGTTVTVSS
VL: DIQMTQSPSSLSASVGDRVTITCQANQDISNYLNWYQQKPGKAPKLLIYRASKLEAGVPSRFSGSGSGTDFTLTISSLQPEDFATYYCQQSSEIPYSFGQGTKLEIK
notes: IgG format
B8: MAdCAM Antibody Table 2 clone 19 (antibody, V domains shown)
VH: EVQLLESGGGLVQPGGSLRLSCAASGFTFEDYAMHWVRQAPGKGLEWVSYLNSDGGSTSYADSVKGRFTISRDNSKNTLYLQMNSLRAEDTAVYYCAKDYCTNGVCAFDYWGQGTLVTVSS
VL: DIQMTQSPSSLSASVGDRVTITCRASQSISTYLNWYQQKPGKAPKLLIYDASNLETGVPSRFSGSGSGTDFTLTISSLQPEDFATYYCQQSYTIPITFGQGTRLEIK
notes: IgG format
B9: MAdCAM Antibody Table 2 clone 21 (antibody, V domains shown)
VH: EVQLVESGGGLVKPGGSLRLSCAASGFTFSSYWMSWVRQAPGKGLEWVSYISGDSGYTNYAAPVKGRFTISRDDSKNTLYLQMNSLKTEDTAVYYCARANSSGWYDWYFDLWGRGTLVTVSS
VL: not shown
notes: IgG format
B10: MAdCAM Antibody Table 2 clone 25 (antibody, V domains shown)
VH: EVQLLESGGGLVQPGGSLRLSCAASGFTFSNAWMSWVRQAPGKGLEWVSTIVGNGGATYYADSVKGRFTISRDNSKNTLYLQMNSLRAEDTAVYYCARDNPLRWQGMDVWGQGTLVTVSS
VL: B4 VL with E27Q, S28D, W32Y, A34N, T53S, V94I, F96P
notes: IgG format
B11: MAdCAM Antibody Table 2 clone 26 (antibody, V domains shown)
VH: EVQLLESGGGLVQPGGSLRLSCAASGFTFSSYAMSWVRQAPGKGLEWVSYISSSSTYTNYADSVKGRFTISRDNSKNTLYLQMNSLRAEDTAVYYCARANSSSWYDWYFDLWGQGTLVTVSS
VL: not shown
notes: IgG format
B12: MAdCAM Antibody Table 2 clone 27 (antibody, V domains shown)
VH: B11 VH with A33Q
VL: not shown
notes: IgG format
B13: MAdCAM Antibody Table 2 clone 34 (antibody, V domains shown)
VH: QVQLVQSGAEVKKPGASVKVSCKASGYTFTGYYIHWVRQAPGQGLEWMGWMNPNSGNTGYAQKFQGRVTMTRDTSTSTVYMELSSLRSEDTAVYYCARDPGFLGYCSGGSCYDGWFDPWGQGTLVTVSS
VL: B8 VL with T31S, N34H, D50A, N53S, E55Q, T56S, I94A, I96Y, R103K
notes: IgG format
B14: MAdCAM Antibody Table 2 clone 37 (antibody, V domains shown)
VH: EVQLLESGGGLVQPGGSLRLSCAASGFTFSDYGMPWVRQAPGKGLEWVSAISGSGGSTYYADSVKGRFTISRDNSKNTLYLQMNSLRAEDTAVYYCARDGGWQPAAILDYWGQGTLVTVSS
VL: B2 VL with S53N, S56T, T91S, H92Y, F94T, S96L, L104V
notes: IgG format
B15: MAdCAM Antibody Table 2 clone 59 (antibody, V domains shown)
VH: B14 VH with T28S, P35H
VL: B2 VL with S53N, S56T, T91S, H92Y, F94T, S96L, Q100G, L104V
notes: IgG format
B16: MAdCAM Antibody Table 2 clone 33 (antibody, V domains shown)
VH: B3 VH with L113T
VL: B1 VL with Q24R, Q27D, D28N, S30G, K31S, S32W, N34A, L96P, G100Q
notes: IgG format
B17: MAdCAM Antibody Table 2 clone 35 (antibody, V domains shown)
VH: B13 VH with C106S, C111S
VL: B8 VL with T31S, N34H, D50A, N53S, E55Q, T56S, I94A, I96Y, R103K
notes: IgG format
B18: MAdCAM Antibody Table 2 clone 32 (antibody, V domains shown)
VH: B3 VH
VL: B1 VL with Q24R, Q27D, D28N, S30G, K31S, S32W, N34A, L96P, G100Q
notes: IgG format
B19: MAdCAM Antibody Table 2 clone 40 (antibody, V domains shown)
VH: B3 VH
VL: B1 VL with Q24R, Q27D, D28N, S30G, K31S, S32W, N34A, L96P, G100Q
notes: IgG format
B20: MAdCAM Antibody Table 2 clone 45 (antibody, V domains shown)
VH: EVQLVESGGGLVKPGGSLRLSCAASGFTFGDYAMSWVRQAPGKGLEWVSYISGDIGYTNYAAPVKGRFTISRDDSKNTLYLQMNSLKTEDTAVYYCARDVAATGNWYFDLWGRGTLVTVSS
VL: not shown
notes: IgG format
B21: MAdCAM Antibody Table 2 clone 52 (antibody, V domains shown)
VH: EVQLLESGGGLVQPGGSLRLSCAASGFTFDDYGMSWVRQAPGKGLEWVSYISSSSSYIYYADSVKGRFTISRDNSKNTLYLQMNSLRAEDTAVYYCAREIAAAGFYGMDVWGQGTTVTVSS
VL: not shown
notes: IgG format
B22: MAdCAM Antibody Table 2 clone 9 (antibody, V domains shown)
VH: QVQLVQSGAEVKKPGASVKVSCKASGYTFTSYYMHWVRQAPGQGLEWMGIINHSGGSTSYAQKFQGRVTMTRDTSTSTVYMELSSLRSEDTAVYYCARPYSGWYFAFDIWGQGTLVTVSS
VL: not shown
notes: IgG format

Biological target: T1, human MAdCAM expressed on cells
Test: cell binding

| Binder | binding result |
| --- | --- |
| B1 | binds |
| B2 | binds |
| B3 | binds |
| B4 | binds |
| B5 | binds |
| B6 | binds |
| B7 | binds |
| B8 | binds |
| B9 | binds |
| B10 | binds |
| B11 | binds |
| B12 | binds |
| B13 | binds |
| B14 | binds |
| B15 | binds |

Biological target: T2, mouse MAdCAM expressed on cells
Test: cell binding

| Binder | binding result |
| --- | --- |
| B1 | binds |
| B2 | binds |
| B3 | no binding |
| B16 | no binding |
| B4 | no binding |
| B5 | no binding |
| B6 | no binding |
| B7 | no binding |
| B8 | no binding |
| B9 | no binding |
| B10 | no binding |
| B11 | no binding |
| B12 | no binding |
| B13 | no binding |
| B17 | no binding |
| B14 | no binding |
| B15 | no binding |
| B18 | no binding |
| B19 | no binding |
| B20 | no binding |
| B21 | no binding |
| B22 | no binding |
